Series [1] concerns MS2 coat protein. Put plainly: apparent KD of MS2 coat protein, switch ON state; designed switch direction (-1 OFF switch, 1 ON switch): 1; higher = weaker reporter binding. The settings on record: FMN input: 0 or 200 uM; Eterna round: R93 (includes R88 designs). In a few lines: (§1)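 Apparent KD stands for the median, per design, of fits to normalised cluster binding curves. The curves came from titrating on-chip-transcribed RNA switches on Illumina sequencing clusters with SNAP-549-labelled MS2 coat protein, twofold from 0.7 or 1.5 nM to 3 µM. Buffer was 100 mM Tris-HCl pH 7.5, 80 mM KCl, 4 mM MgCl2, without or with constant ligand.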

Series [2] has as its system MS2 coat protein. The series can be described thus: apparent KD of MS2 coat protein, switch OFF state (with FMN for OFF switches, without FMN for ON switches); designed switch direction (-1 OFF switch, 1 ON switch): 1; higher = weaker reporter binding. The settings on record: FMN input: 0 or 200 uM; Eterna round: R93 (includes R88 designs). The essentials: as §1

With “AACUACAUUAUGAAGGAUAUCCACAUCAAGACAUGAGGAUCACCCAUGUAAACUUAGAACAUACAGGAGAAGGUCAAGGGUGAAU [JR_SS002_Sub1206]”, the “apparent KD of MS2 coat protein” value was determined as 234 nM in the series with MS2 coat protein [1] and 69.2 nM in the series with MS2 coat protein [2].

“AAGAAAAAAAGGCAGGAUAUCCAAAAAAAAACAUGAGGAUCACCCAUGUAAAAAUAAAAAAAAUGGGAGAAGGGCCAAAAAAGAA [Mat - Same State 2 - Mod - 154]”: the “apparent KD of MS2 coat protein” value was found to be 13.8 nM in the series with MS2 coat protein [1] and 22.1 nM in the series on MS2 coat protein [2].

With “AAGAAACAUGAGGAUCACCCAUGUAAGAAUAUGGGAGGAUAUGCGAAAAGAAACAAAGAAGCAGAAGGCCUAAGAA [75%, Ex5 sub 1, 5]”, the “apparent KD of MS2 coat protein” value in the series with MS2 coat protein [1] worked out at 26.6 nM; in the series on MS2 coat protein [2] it was 57.6 nM.

For the sequence “AAGAAACAUGAGGAUCACCCAUGUAGAAAUAUGGGAGGAUAUACAAGGACGUAAGUCAAGGUAGAAGGCCUAAGAA [Mat - Same State 1 - Meechl mod - D135]”, the entries for the “apparent KD of MS2 coat protein” value with MS2 coat protein [1] and in the series on MS2 coat protein [2] were 26 nM and 97 nM, respectively.

On to “AAGAAACAUGAGGAUCACCCAUGUGAGAAAAACACAGGAUAUGCAAAAGAAAGAAAGAAAGCAGAAGGGUGAAGAA [Mat - Same State 1 - Tesla mod - 52]”, for which the “apparent KD of MS2 coat protein” value with MS2 coat protein [1] is 22.5 nM; with MS2 coat protein [2] it was 74 nM.

Regarding “AAUAAACAUGAGGAUCACCCAUGUUUUAAUAGUUGAGGAUAUAAGGGUGAAAAUAGCAUAUUAGAAGGCGAGUGUA [SameState1 Malc#14]”, the “apparent KD of MS2 coat protein” value in the series on MS2 coat protein [1] amounted to 32.7 nM; with MS2 coat protein [2] it was 31.7 nM.

“AAUAAUUAUACGAAGGAUAUCGGUAAUUAGACAUGAGGAUCACCCAUGUAAUAAGGUUAAAUAAACGAGAAGGUCGAGGGUGAAA [JR_SS002_Sub501]”: the “apparent KD of MS2 coat protein” value stood at 66.9 nM with MS2 coat protein [1] and 41.5 nM with MS2 coat protein [2].

Take “AAUACACAUGGUCAGGAUAUCGCAGCUAGGACAUGAGGAUCACCCAUGUCGCACGUAACCGUAACCGAGAAGGGACAGGGUGACC [JR_SS002_Sub409]”: the “apparent KD of MS2 coat protein” value in the series on MS2 coat protein [1] is 36.9 nM; with MS2 coat protein [2], 15.2 nM.

Take “AAUACACAUGGUCAGGAUAUCGCAGCUAGGACAUGAGGAUCACCCAUGUCGCACGUAACCGUAACCGAGAAGGGACAGGGUGAUC [JR_SS002_Sub410]”: the “apparent KD of MS2 coat protein” value stood at 21.8 nM in the series with MS2 coat protein [1] and 34 nM in the series with MS2 coat protein [2].

For the sequence “AAUACACAUGGUCAGGAUAUCGCAGCUAGGACAUGAGGAUCACCCAUGUCGCAUGUAACUGUAACCGAGAAGGGACAGGGUGAUC [JR_SS002_Sub411]”, the “apparent KD of MS2 coat protein” value in the series with MS2 coat protein [1] was found to be 123 nM; with MS2 coat protein [2], 92.6 nM.

“AAUAUACAUGAGGAUCACCCAUGUGAAAAUAUGGGAGGAUAUCGGAAAAAAAAAAAAAAACGAGAAGGCCCAAAAA [SS! 1 MT 13]”: the “apparent KD of MS2 coat protein” value with MS2 coat protein [1] was determined as 20.8 nM; with MS2 coat protein [2], 119 nM.

Regarding “AAUAUAUUAAGUGAGGAUAUCAAGAAAAAAACAUGAGGAUCACCCAUGUGGGAAACACGAUAGGGUGAGAAGGUACUUAAUAUAU [Samwise Clockwise 19 - Jieux - Same State 2]”, the “apparent KD of MS2 coat protein” value with MS2 coat protein [1] is 84.5 nM; in the series on MS2 coat protein [2], 42.5 nM.

For “ACUACACAUGAGGAUCACCCAUGUCAGGUGGGACUAGGAUAUUAUAAACCAGAGUAAUUAUAAGAAGGAGUAGAAA [JR_SS001_Sub307]”, the “apparent KD of MS2 coat protein” value in the series with MS2 coat protein [1] is 32.6 nM; with MS2 coat protein [2] it was 42.2 nM.

As to “ACUUCACAUGAGGAUCACCCAUGUCAGGCCGGACUAGGAUAUUAUCAUGCAGCGUAACCAUAAGAAGGAGUAGGAA [JR_SS001_Sub314]”, the “apparent KD of MS2 coat protein” value stood at 136 nM in the series on MS2 coat protein [1] and 57.3 nM in the series on MS2 coat protein [2].

For “AGAAAACAUGAGGAUCACCCAUGUAGAAAUAUGGGAGGAUAUACGAAGACGAAAGUCAAAGUAGAAGGCCUAAAGA [Mat - Same State 1 - Eli mod - D101]”, the figures for the “apparent KD of MS2 coat protein” value with MS2 coat protein [1] and with MS2 coat protein [2] were 23.6 nM and 77.6 nM, respectively.

In the case of “AGAAAACAUGAGGAUCACCCAUGUUAGUGUCAUUAAGGAUAUAGGCUUAAGAAUCUGAGACUAGAAGGUGGUGCGC [Orbeus]”, the “apparent KD of MS2 coat protein” value was 21.9 nM in the series with MS2 coat protein [1] and 30.8 nM with MS2 coat protein [2].

On to “AGAAAUAAAACACAGGAUAUCCAAAAUAAAACAUGAGGAUCACCCAUGUAAAAUAAAAUAAAAUGGGAGAAGGGUGAAAAUAAAG [Mat - Same State 2 - JL mod - D10]”, for which the “apparent KD of MS2 coat protein” value came out at 25.3 nM with MS2 coat protein [1] and 39.9 nM in the series on MS2 coat protein [2].

On to “AGAAAUAAAAGAGAGGAUAUCUCAAAGAAAACAUGAGGAUCACCCAUGUAAAAGAAAAUAAAAUGGGAGAAGGCUCAUAAUAAAG [JL Skelter Mod 5 In the Red]”, for which the “apparent KD of MS2 coat protein” value is 54.3 nM in the series on MS2 coat protein [1] and 133 nM with MS2 coat protein [2].

Take “AGAAAUAAAGGAGAGGAUAUCCAAAAGAAAACAUGAGGAUCACCCAUGUAAAAGAAAAUAAAAUGGGAGAAGGCUUCAAAUAAGA [Starry modified V4]”: the entries for the “apparent KD of MS2 coat protein” value in the series on MS2 coat protein [1] and in the series on MS2 coat protein [2] were 52.3 nM and 46.4 nM, respectively.

In the case of “AGAAAUAAAUGAGAGGAUAUCCAAAAGAAAACAUGAGGAUCACCCAUGUAAAAGAAAAUAAAAUGGGAGAAGGCUCAAAAUAAAG [80%, More Helter Skelter 2]”, the results for the “apparent KD of MS2 coat protein” value with MS2 coat protein [1] and in the series on MS2 coat protein [2] were 23.5 nM and 58.5 nM, respectively.

Regarding “AGACAUAACAGAGAGGAUAUCCAAUAGAAAACAUGAGGAUCACCCAUGUGAAAGAUAAUAAAAUGGGAGAAGGCUCACAUACAGA [Topaz 40]”, the “apparent KD of MS2 coat protein” value with MS2 coat protein [1] came to 19.5 nM; with MS2 coat protein [2], 30.4 nM.

Turning to “AGAGUAAACAGAGAGGAUAUCCAAUAGAAAACAUGAGGAUCACCCAUGUGAAAGAUAAUAAAAUGGGAGAAGGCUCACAAUAAGA [Topaz 43]”, the entries for the “apparent KD of MS2 coat protein” value in the series on MS2 coat protein [1] and in the series on MS2 coat protein [2] were 24.6 nM and 49.4 nM, respectively.

For “AGCAUGCGAUAUAAGGAUAUGUUGUUUGCAACAUGAGGAUCACCCAUGUUUGAGGCUGAAAAGCAGCAGAAGGUAUAUACAAGCA [SS2-1.0]”, the “apparent KD of MS2 coat protein” value with MS2 coat protein [1] was 9.45 nM; with MS2 coat protein [2] it was 13 nM.

“AGGAAACAUGAGGAUCACCCAUGUAAAAAAUAGGGAGGAUAUACUAGAAGAAACAAAAUAGUAGAAGGUCCAAAAA [75%, Ex sub1, 24]”: the “apparent KD of MS2 coat protein” value turned out to be 18.4 nM in the series with MS2 coat protein [1] and 27.6 nM with MS2 coat protein [2].

For the sequence “AGGAAACAUGAGGAUCACCCAUGUAAAAAUAUGGGAGGAUAUACAAAGACGAAAGUCAAAGUAGAAGGCCUAAAAG [77%, Mat - Mod of Eli, 4]”, the “apparent KD of MS2 coat protein” value turned out to be 21.4 nM in the series with MS2 coat protein [1] and 60.1 nM with MS2 coat protein [2].

Take “AGGAAACAUGAGGAUCACCCAUGUAAAAAUAUGGGAGGAUAUACGAAGAAAAAAAAAAAAGUAGAAGGCCUAAAAG [Garnet 11]”: the figures for the “apparent KD of MS2 coat protein” value in the series with MS2 coat protein [1] and with MS2 coat protein [2] were 90.7 nM and 345 nM, respectively.

On to “AGGAAACAUGAGGAUCACCCAUGUAAAAAUAUGGGAGGAUAUACUAGAAGAAACAAAAUAGUAGAAGGCCUAAAAA [75%, Ex sub1, 26]”, for which the “apparent KD of MS2 coat protein” value was 17.4 nM with MS2 coat protein [1] and 47.4 nM with MS2 coat protein [2].

With “AGGAGACAUGAGGAUCACCCAUGUGAGAAGAGGCGAGGAUAUCGAAAGAAAGAAGAGAAACGAGAAGGCGCGAGGG [salish99-SS1-027]”, the “apparent KD of MS2 coat protein” value in the series on MS2 coat protein [1] is 26.9 nM; in the series with MS2 coat protein [2] it was 39.2 nM.

As to “AGGUAACAUGAGGAUCACCCAUGUACCGAUAAUGCAGGAUAUCGACACGAAAAUACGUGUCGAGAAGGGCAUGAAA [SS1 MT 23]”, the “apparent KD of MS2 coat protein” value with MS2 coat protein [1] amounted to 14.3 nM; in the series on MS2 coat protein [2], 13.5 nM.

The record behind these values is the supplement of paper PMC9170038.
